Laboratory results from patent publication US20200199241A1 (Chugai, published 2020).
Where two headings read alike, the source gives them in different places.

T1: mouse FcRn (mouse, UniProt Q61559 22-297; P01887 21-119, limits assumed)
T1 construct: also called mFcRn
T1 sequence (looked up) 1: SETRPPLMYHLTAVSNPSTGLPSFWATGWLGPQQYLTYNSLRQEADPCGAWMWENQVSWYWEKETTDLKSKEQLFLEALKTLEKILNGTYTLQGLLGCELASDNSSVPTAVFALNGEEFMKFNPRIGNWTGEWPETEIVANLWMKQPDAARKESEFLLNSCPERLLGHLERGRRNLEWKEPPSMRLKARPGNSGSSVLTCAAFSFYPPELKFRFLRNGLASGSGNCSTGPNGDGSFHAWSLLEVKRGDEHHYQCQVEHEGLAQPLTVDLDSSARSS
T1 sequence (looked up) 2: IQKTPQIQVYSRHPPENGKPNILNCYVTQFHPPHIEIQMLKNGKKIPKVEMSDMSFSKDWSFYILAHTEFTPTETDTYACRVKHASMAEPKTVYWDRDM

T2: human FcγRIIa(R) (human, UniProt P12318 36-217)
T2 construct: also called hFcgRIIa(R); FcγRIIa type R
T2 chain: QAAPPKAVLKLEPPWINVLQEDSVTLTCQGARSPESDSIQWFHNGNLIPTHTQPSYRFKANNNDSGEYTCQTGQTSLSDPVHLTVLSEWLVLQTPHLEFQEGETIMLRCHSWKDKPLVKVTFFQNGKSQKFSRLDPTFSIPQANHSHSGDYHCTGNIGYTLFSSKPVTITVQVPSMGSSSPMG

T3: human FcγRIIb (human, UniProt P31994 43-217, limits assumed)
T3 construct: also called hFcgRIIb; FcγIIB
T3 sequence: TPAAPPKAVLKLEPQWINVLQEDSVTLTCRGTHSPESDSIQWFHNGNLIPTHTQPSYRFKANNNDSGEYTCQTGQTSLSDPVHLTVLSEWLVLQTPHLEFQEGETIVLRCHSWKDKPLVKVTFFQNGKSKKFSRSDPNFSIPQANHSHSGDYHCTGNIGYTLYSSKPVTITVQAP

T4: human FcγRIIa(H) (human, UniProt P12318 36-217)
T4 construct: also called hFcgRIIa(H); FcγRIIa type H
T4 sequence: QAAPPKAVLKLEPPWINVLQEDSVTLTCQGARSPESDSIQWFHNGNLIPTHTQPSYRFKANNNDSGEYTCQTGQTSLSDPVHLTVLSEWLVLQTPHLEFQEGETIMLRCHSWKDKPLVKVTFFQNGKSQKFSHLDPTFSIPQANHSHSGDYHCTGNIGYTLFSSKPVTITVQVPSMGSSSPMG


How the values were obtained:
[1] = molecular target: T1, mouse FcRn; assay: SPR, mouse FcRn, pH 7.0
[2] = molecular target: T2, human FcγRIIa(R); assay: SPR, antibody captured by Protein L, human FcγR as analyte, pH 7.4, 25 C
[3] = molecular target: T3, human FcγRIIb; assay: as above
[4] = molecular target: T5, human FcγRIa (human, UniProt P12314 16-292, limits assumed); assay: as above
T5 construct: also called hFcgRIa; hFcgRI

[5] = molecular target: T4, human FcγRIIa(H); assay: as above
[6] = molecular target: T6, human FcRn (soluble human FcRn complexed with β2-microglobulin) (human, UniProt P61769 21-119, limits assumed); assay: SPR, antibody captured by Protein L, human FcRn as analyte, pH 7.0, 25 C
T6 construct: also called hFcRn

[7] = molecular target: T2, human FcγRIIa(R); assay: SPR, antibody captured by Protein L, human FcγR as analyte, pH 7.4, 25 C
[8] = molecular target: T3, human FcγRIIb; assay: as above; remark: listed apart in the source
[9] = molecular target: T5, human FcγRIa; assay: as above; remark: listed apart in the source
[10] = molecular target: T4, human FcγRIIa(H); assay: as above; remark: listed apart in the source
[11] = molecular target: T6, human FcRn (soluble human FcRn …); assay: SPR, antibody captured by Protein L, human FcRn as analyte, pH 7.0, 25 C; remark: listed apart in the source

T5 sequence (P12314 16-292 limits assumed): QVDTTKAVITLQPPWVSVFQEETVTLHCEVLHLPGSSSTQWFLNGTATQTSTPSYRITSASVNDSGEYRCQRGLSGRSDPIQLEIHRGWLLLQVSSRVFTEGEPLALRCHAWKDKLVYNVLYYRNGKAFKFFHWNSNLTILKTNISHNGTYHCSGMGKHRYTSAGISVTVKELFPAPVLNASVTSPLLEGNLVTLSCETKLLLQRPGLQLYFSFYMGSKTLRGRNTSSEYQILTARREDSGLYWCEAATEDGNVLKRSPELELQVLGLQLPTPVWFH
T6 sequence (chain, as listed by the source limits assumed, chain 1 of 2): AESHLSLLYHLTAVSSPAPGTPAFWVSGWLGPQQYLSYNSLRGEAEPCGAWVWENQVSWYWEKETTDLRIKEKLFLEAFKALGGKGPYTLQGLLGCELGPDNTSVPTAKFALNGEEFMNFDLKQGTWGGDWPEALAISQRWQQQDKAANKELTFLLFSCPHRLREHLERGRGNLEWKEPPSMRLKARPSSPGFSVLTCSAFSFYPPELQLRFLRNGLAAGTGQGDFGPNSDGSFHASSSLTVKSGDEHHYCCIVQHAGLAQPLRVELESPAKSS
T6 sequence (P61769 21-119 limits assumed, chain 2 of 2): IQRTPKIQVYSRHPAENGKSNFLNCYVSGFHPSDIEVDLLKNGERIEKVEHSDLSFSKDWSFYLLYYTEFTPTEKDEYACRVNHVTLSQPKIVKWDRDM

Binder | Kd [1] | BINDING AMOUNT (RU) [2] | BINDING AMOUNT (RU) [3] | BINDING AMOUNT (RU) [4] | BINDING AMOUNT (RU) [5] | Kd [6] | BINDING AMOUNT (RU) [7] | BINDING AMOUNT (RU) [8] | BINDING AMOUNT (RU) [9] | BINDING AMOUNT (RU) [10] | Kd [11]
antibody with mPM1H-mIgG1-mF3 heavy chain and L(WT)-CK light chain (antibody, T252Y/T256E/H433K/N434F; copies: 2 + 2) heavy: DVQLQESGPVLVKPSQSLSLTCTVTGYSITSDHAWSWIRQFPGNKLEWMGYISYSGITTYNPSLKSRISITRDTSKNQFFLQLNSVTTGDTSTYYCARSLARTTAMDYWGQGTSVTVSSAKTTPPSVYPLAPGSAAQTNSMVTLGCLVKGYFPEPVTVTWNSGSLSSGVHTFPAVLQSDLYTLSSSVTVPSSTWPSETVTCNVAHPASSTKVDKKIVPRDCGCKPCICTVPEVSSVFIFPPKPKDVLYITLEPKVTCVVVDISKDDPEVQFSWFVDDVEVHTAQTQPREEQFNSTFRSVSELPIMHQDWLNGKEFKCRVNSAAFPAPIEKTISKTKGRPKAPQVYTIPPPKEQMAKDKVSLTCMITDFFPEDITVEWQWNGQPAENYKNTQPIMDTDGSYFVYSKLNVQKSNWEAGNTFTCSVLHEGLKFHHTEKSLSHSPGK light: not shown | 1.6 nM |  |  |  |  |  |  |  |  |  | 
VH3/L(WT)-IgG1-F698 (antibody, name in EU numbering, copies: 2 + 2) heavy: QVQLQESGPGLVKPSETLSLTCAVSGHSISHDHAWSWVRQPPGEGLEWIGFISYSGITNYNPSLQGRVTISRDNSKNTLYLQMNSLRAEDTAVYYCARSLARTTAMDYWGEGTLVTVSSASTKGPSVFPLAPSSKSTSGGTAALGCLVKDYFPEPVTVSWNSGALTSGVHTFPAVLQSSGLYSLSSVVTVPSSSLGTQTYICNVNHKPSNTKVDKKVEPKSCDKTHTCPPCPAPELLGGPSVFLFPPKPKDTLYISRTPEVTCVVVDVSHEDPEVKFNWYVDGVEVHEAKTKPREEQYNSTYRVVSVLQVLHADWLNGKEYKCKVSNKALPAPIEKTISKAKGQPREPQVYTLPPSRDELTKNQVSLTCLVKGFYPSDIAVEWESNGQPENNYKTTPPVLDSDGSFFLYSKLTVDKSRWQQGNVFSCSVMHEALHYHYTQKSLSLSP light: not shown |  | 117 RU | 42.1 RU | 392 RU | 116 RU | 22 nM | 117 RU | 42.1 RU | 392 RU | 116 RU | 22 nM
